Target: HFV integrase (HFV IN) (Human foamy virus, UniProt P14350 752-1143)
Assay: EMSA; 5 mM Mg2+
Details: protein: recombinant; chain copies: 4; blunt

B1: U5-HFV duplex (U5B-HFV/U5A-HFV) (dsDNA)
DNA 1: ATACAAAATTCCATGACAAT
DNA 2: ATTGTCATGGAATTTTGTAT
Kd: 17.3 nM

Reference: article PMC3347520, “Relative Comparison of Catalytic Characteristics of Human Foamy Virus and HIV-1 Integrases”
